PMC10148881 (2023)

B1: Ala6/C-degron peptide (sequence: YKTSAAAAAA) / Pirh2 NTD + RING (residues 1–189) [human] (parent complex)
chain 1: YKTSAAAAAA
chain 2: MAATAREDGASGQERGQRGCEHYDRGCLLKAPCCDKLYTCRLCHDNNEDHQLDRFKVKEVQCINCEKIQHAQQTCEECSTLFGEYYCDICHLFDKDKKQYHCENCGICRIGPKEDFFHCLKCNLCLAMNLQGRHKCIENVSRQNCPICLEDIHTSRVVAHVLPCGHLLHRTCYEEMLKEGYRCPLCMHS
B2: YKTSAAAA peptide / Pirh2 NTD + RING (residues 1–189) [human] (parent complex)
chain 1: YKTSAAAA
chain 2: B1 chain 2

Variants of: B1
Assay: ITC
In the case of chain 1 A8T, the Kd is reported as 0.7 µM.

Variants of: B2
Assay: ITC
chain 1 A5G showed a Kd of 55 µM.
chain 1 A5S showed a Kd of 4.5 µM.
chain 1 A5P gave a Kd of 57 µM.

Variants of: B2
Assay: ITC
Remark: another data set of the same source
chain 1 A7G gave a Kd of 22 µM.
chain 1 A7P gave a Kd of 26 µM.
chain 1 A7S was tested, and the Kd was 20 µM.
In the case of chain 1 A7I, the Kd is reported as 13 µM.
chain 1 A7V showed a Kd of 13 µM.

Variants of: B2
Assay: ITC
Remark: another data set of the same source
Variant chain 1 A8G has a Kd of 23 µM.

Variants of: B2
Assay: ITC
Remark: another data set of the same source
With chain 1 A6I the Kd was 2.7 µM.
With chain 1 A6G the Kd was 2.3 µM.
For chain 1 A6L, the Kd was 2.8 µM.
chain 1 A6V was tested, and the Kd was 1.9 µM.
Variant chain 1 A6S has a Kd of 3 µM.
